Drawing on US20260274981A1 (VIB VZW, published 2026), this text covers EC50 for 5 molecules.

Assay [1] addresses T1, cynomolgus TfR overexpressed on CHO cells (cynomolgus monkey, UniProt Q5RDH6 1-760 (Pongo abelii entry)).
T1 construct: construct is TfR followed by an HA tag and IRES-GFP; also called cynomolgus monkey TfR1; NHP TfR
T1 chain: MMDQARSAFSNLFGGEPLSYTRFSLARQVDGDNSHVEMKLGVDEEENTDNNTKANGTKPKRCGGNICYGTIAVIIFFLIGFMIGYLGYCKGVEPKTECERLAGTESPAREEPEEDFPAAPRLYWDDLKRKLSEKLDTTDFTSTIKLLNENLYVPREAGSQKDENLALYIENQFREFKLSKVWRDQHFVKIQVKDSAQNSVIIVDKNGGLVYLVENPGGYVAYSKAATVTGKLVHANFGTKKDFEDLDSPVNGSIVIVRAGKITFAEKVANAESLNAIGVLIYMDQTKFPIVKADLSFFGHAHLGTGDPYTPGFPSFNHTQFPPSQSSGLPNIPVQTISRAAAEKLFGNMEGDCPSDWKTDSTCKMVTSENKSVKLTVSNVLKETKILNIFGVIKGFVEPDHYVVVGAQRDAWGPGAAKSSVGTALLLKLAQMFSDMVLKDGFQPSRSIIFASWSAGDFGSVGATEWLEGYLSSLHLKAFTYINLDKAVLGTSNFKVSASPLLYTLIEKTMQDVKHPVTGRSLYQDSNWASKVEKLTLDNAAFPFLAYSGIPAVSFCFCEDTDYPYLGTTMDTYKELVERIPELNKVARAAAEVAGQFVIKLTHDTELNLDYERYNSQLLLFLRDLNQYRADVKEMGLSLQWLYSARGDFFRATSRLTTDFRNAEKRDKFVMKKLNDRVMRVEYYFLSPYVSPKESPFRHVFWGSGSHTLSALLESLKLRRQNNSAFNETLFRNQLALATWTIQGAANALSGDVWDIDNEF
Put plainly: flow cytometry, column 'Binding to cyno TfR1 EC50 (M)'; paragraph 156 calls it the capacity to compete for binding on cynomolgus monkey TfR1, competitor not named.

Assay [2] concerns the target T2, human TfR overexpressed on CHO cells (human, UniProt P02786 1-760).
T2 construct: construct is TfR followed by an HA tag and IRES-GFP; also called hTfR; human transferrin receptor
Put plainly: flow cytometry, column 'Binding to human TfR1 EC50 (M)'; paragraph 156 calls it the capacity to compete for binding on human TfR1, competitor not named. (In general: A flow cytometer gives signals particle by particle.)

Assay [3] deals with T1, cynomolgus TfR overexpressed on CHO …. Kind of assay: flow cytometry, first of two columns 'Binding to cyno TfR1 EC50 (M)' (second column: ND); paragraph 156 calls it the capacity to compete for binding on cynomolgus monkey TfR1, competitor not named.
Assay [4] has as its target T2, human TfR overexpressed on CHO cells. Kind of assay: flow cytometry, first of two columns 'Binding to human TfR1 EC50 (M)' (second column: ND); paragraph 156 calls it the capacity to compete for binding on human TfR1, competitor not named.
The target in assay [5] is T1, cynomolgus TfR overexpressed on CHO …. Kind of assay: flow cytometry, second of two columns 'Binding to cyno TfR1 EC50 (M)' (first column: ND); paragraph 156 calls it the capacity to compete for binding on cynomolgus monkey TfR1, competitor not named.
Assay [6] concerns the target T2, human TfR overexpressed on CHO cells. Kind of assay: flow cytometry, second of two columns 'Binding to human TfR1 EC50 (M)' (first column: ND); paragraph 156 calls it the capacity to compete for binding on human TfR1, competitor not named.

Substitutions are numbered along the chain they refer to. Names and notes keep the numbering of the source.

B1: BBB00515_h04 (VHH)
VHH: DVQLVESGGGLVQPGGSLRLSCAASGSIFSINAMGWYRQAPGKQRELVAVITSGGSTIYADSVKGRFTISRDNAKNTVYLQMNSLRPEDTAVYYCNAHVGLKVPTIQELSLGFGSWGQGTLVTVSS
notes: The sheet prints E1D and E84K (IMGT) against BBB00515_h01; also called BBB00515_h4
Take B1: the values for the EC50 in assay [1] and in assay [2] were 22 nM and 60 nM, respectively.

B2: BBB00533_h14 (VHH)
VHH: EVQLVESGGGLVQPGGSLRLSCTASGRTFNYAMGWFRQAPGKNREFVATIDWKDGSSYYADSVKGRFTISRDDAKNTVYLQMNSLRPEDTAVYYCAVGEGDYCSTYTCAAEVEYDYWGQGTLVTVSS
For B2, the EC50 (commonly the concentration at which the effect is half-maximal) was 180 nM in assay [3] and 340 nM in assay [4].

B3: BBB00533_h10 (VHH)
VHH: B2 VHH with A60L, D73N, E99D
notes: The sheet prints R72K and D82N (IMGT) against BBB00533_h01
With B3, the EC50 in assay [5] came to 14 nM; in assay [6], 110 nM.

B4: BBB00533_h13 (VHH)
VHH: B2 VHH with E99Q
B4: the EC50 was determined as 240 nM in assay [3] and 560 nM in assay [4].

B5: BBB00533_h17 (VHH)
VHH: B2 VHH with D54Q
Consider B5, for which the EC50 in assay [3] was determined as 120 nM; in assay [4] it was 290 nM.
